Changes are numbered by the printed parent chain. Numbers in names are those of the source.
Assays:
[1] = biological target: T1, human integrin α5β1 on cells (endogenous, HUVEC; tumor or endothelial-expressed) (human, UniProt P08648 42-1049; P05556 21-798); assay: FACS on HUVEC (endogenous human α5β1), GeoMean against mAb concentration, fitted; experiment 031307
T1 construct: whole, on cells; also called cell surface integrin α5; endogenous α5β1
Method: The 22B5/DLE, 24C7/DLE, 1 D9/DLE, and 2D2/DLE antibodies were tested for their binding affinity to cell surface integrin α5 using a FACS assay, employing endogenous human integrin α5β1 expressing cells (HUVEC). Briefly, the cells were detached using trypsin-EDTA and washed with cold PBS. After being aliquoted into 96-well plates, the cells were blocked by serum and incubated with different concentrations of specific mAb for 1 hour at 4° C. Subsequently, the cells were washed and incubated with an anti-human κ secondary antibody conjugated with the R-PE fluorophore and analyzed using a FACSCalibur flow cytometer. 10,000 events were collected for each sample without applying any gating. For KD determination, the Geometric Mean of each sample histogram was calculated and plotted as a function of the mAb concentration. KD was calculated after fitting to a two-state equilibrium model.

[2] = biological target: T2, human recombinant α5β1 extracellular domain (human, UniProt P08648 42-995; P05556 21-728); assay: Biacore, antibody immobilised, α5β1 extracellular domain flowed, 25.0 C, 4.0 mM MgCl2
T2 construct: extracellular domain; also called α5β1 recombinant extracellular domain; extracellular domain of α5β1
Method: Binding kinetics and nominal avidity of 22B5/DLE to the extracellular domain of α5β1 was determined using Biacore analysis (Biacore AB, Uppsala, Sweden). To perform BIAcore kinetic analyses, the 22B5/DLE antibody was immobilized on a biosensor chip and various concentrations of human recombinant α5β1 extracellular domain were flowed across the surface at 25.0° C. (see FIG. 3). The binding data were fit globally to a simple one-to-one binding model with drifting baseline. 22B5/DLE binds reversibly to α5β1. […] The KD was greater when measured in the absence of divalent cations, consistent with cation-dependent activation of integrin.

[3] = biological target: T1, human integrin α5β1 on cells …; assay: cell-based or functional assay
[4] = biological target: T3, Human FcγRIIIa/158F (human, UniProt P08637 17-208, limits assumed); assay: Biacore, KD against 22B5 wild type IgG1
T3 construct: also called Human FcγRIII/158F
Method: (§1) The ability of 22B5/DLE, which contains the IgG1 DLE triple mutations (as discussed previously in Example 2), to enhance binding to the FcγRs was evaluated in a Biacore binding experiment. The FcγR binding affinities of 22B5/DLE were compared with the binding affinity of wild type (wt) IgG1. […] The binding affinity comparison of 22B5/DLE and wild type IgG1 was also evaluated against the murine Fcγ receptors. The greatest enhancement in binding was to the mFcγRIV, followed by mFcγRI, and mFcγRIII (see FIG. 5).

[5] = biological target: T4, Murine FcγRI (murine, UniProt P26151 25-297, limits assumed); assay: Biacore, KD against 22B5 wild type IgG1
T4 construct: Construct not described; also called mFcγRI
T4 sequence (looked up): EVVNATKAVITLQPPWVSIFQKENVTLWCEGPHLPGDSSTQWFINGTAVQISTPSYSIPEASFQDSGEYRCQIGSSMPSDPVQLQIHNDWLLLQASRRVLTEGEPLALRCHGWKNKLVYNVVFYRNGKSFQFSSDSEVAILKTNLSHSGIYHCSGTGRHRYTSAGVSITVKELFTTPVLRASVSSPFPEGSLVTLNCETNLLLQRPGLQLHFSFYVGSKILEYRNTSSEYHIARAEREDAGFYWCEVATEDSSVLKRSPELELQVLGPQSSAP
Method: as §1

[6] = biological target: T5, Human FcγRI (human, UniProt P12314 16-288, limits assumed); assay: Biacore, KD against 22B5 wild type IgG1
T5 construct: Construct used in Biacore is not described
Method: as §1

[7] = biological target: T6, Murine FcγRIV (murine, UniProt A0A0B4J1G0 21-203); assay: Biacore, KD against 22B5 wild type IgG1
T6 construct: Construct not described; also called mFcγRIV
T6 sequence: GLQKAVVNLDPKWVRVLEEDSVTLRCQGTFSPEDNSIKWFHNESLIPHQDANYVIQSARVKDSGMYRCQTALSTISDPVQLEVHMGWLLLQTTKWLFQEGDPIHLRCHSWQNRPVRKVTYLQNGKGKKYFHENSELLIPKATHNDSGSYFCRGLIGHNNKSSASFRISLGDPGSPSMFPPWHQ
Method: as §1

[8] = biological target: T7, Human FcγRIIa/131H (human, UniProt P12318 36-218, limits assumed); assay: Biacore, KD against 22B5 wild type IgG1
T7 construct: Polymorphic variant 131H; construct not described
T7 sequence (looked up): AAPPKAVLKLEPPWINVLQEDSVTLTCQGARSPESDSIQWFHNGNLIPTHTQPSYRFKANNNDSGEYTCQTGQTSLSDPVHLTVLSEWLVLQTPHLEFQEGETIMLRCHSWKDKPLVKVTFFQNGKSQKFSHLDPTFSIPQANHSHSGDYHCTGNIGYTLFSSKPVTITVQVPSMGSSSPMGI
Method: as §1

[9] = biological target: T8, Human FcγRIIIa/158V (human, UniProt P08637 17-208, limits assumed); assay: Biacore, KD against 22B5 wild type IgG1
T8 construct: also called Human FcγRIII/158V
Method: as §1

[10] = biological target: T9, Human FcγRIIa/131R (human, UniProt P12318 36-218, limits assumed); assay: Biacore, KD against 22B5 wild type IgG1
T9 construct: Polymorphic variant 131R; construct not described
T9 sequence (looked up): T7 sequence (looked up) with H132R
Method: as §1

[11] = biological target: T10, Murine FcγRIII (murine, UniProt P08508 31-215, limits assumed); assay: Biacore, KD against 22B5 wild type IgG1
T10 construct: Construct not described; also called mFcγRIII
T10 sequence (looked up): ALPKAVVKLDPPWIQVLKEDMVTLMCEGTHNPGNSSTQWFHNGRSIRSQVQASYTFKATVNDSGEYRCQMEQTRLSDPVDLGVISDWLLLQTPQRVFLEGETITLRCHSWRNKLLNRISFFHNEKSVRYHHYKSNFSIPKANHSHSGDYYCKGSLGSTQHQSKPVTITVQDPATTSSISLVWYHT
Method: as §1

T2 sequence (P08648 42-995, chain 1 of 2): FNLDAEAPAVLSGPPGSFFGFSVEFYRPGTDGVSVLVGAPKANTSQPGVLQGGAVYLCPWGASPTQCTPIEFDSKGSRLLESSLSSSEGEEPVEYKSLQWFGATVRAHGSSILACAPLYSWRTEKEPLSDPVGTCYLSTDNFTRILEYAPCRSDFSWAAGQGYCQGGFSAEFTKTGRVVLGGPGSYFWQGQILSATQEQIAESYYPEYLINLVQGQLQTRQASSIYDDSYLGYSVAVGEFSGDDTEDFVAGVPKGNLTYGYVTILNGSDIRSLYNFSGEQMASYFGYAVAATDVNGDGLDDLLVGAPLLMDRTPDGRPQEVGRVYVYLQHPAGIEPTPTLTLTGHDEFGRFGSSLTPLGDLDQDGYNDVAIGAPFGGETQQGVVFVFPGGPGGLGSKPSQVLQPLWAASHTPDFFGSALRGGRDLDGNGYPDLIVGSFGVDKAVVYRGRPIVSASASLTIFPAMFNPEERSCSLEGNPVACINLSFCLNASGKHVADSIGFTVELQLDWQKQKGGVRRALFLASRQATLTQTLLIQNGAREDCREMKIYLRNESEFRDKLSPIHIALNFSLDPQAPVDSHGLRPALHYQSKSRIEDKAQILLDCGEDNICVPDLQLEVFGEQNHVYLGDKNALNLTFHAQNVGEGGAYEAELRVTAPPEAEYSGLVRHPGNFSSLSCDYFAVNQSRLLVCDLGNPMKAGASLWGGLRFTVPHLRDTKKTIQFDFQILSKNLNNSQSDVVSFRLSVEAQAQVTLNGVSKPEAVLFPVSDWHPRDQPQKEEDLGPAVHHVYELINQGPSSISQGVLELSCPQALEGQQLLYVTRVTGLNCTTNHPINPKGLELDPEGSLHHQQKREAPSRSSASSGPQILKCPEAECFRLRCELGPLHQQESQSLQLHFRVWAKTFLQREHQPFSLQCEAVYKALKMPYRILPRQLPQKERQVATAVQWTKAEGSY
T2 sequence (P05556 21-728, chain 2 of 2): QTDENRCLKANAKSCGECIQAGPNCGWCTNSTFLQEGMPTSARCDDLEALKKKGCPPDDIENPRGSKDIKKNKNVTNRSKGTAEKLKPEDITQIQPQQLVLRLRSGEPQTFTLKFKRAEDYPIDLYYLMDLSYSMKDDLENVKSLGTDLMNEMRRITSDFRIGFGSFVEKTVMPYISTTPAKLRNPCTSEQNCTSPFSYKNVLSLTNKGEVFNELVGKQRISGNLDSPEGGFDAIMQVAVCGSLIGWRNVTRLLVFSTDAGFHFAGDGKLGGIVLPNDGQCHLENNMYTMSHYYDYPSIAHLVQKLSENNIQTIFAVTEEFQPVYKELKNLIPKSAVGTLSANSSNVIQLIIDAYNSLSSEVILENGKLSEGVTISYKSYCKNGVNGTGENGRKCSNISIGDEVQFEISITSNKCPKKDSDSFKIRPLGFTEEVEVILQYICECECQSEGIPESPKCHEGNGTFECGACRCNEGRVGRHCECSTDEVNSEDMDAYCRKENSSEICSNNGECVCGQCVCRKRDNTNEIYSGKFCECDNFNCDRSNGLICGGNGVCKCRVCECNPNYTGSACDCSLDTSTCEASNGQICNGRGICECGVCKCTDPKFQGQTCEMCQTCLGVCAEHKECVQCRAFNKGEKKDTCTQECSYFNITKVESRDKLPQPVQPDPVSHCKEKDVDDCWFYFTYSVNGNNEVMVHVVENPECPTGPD
T1 sequence (P08648 42-1049, chain 1 of 2): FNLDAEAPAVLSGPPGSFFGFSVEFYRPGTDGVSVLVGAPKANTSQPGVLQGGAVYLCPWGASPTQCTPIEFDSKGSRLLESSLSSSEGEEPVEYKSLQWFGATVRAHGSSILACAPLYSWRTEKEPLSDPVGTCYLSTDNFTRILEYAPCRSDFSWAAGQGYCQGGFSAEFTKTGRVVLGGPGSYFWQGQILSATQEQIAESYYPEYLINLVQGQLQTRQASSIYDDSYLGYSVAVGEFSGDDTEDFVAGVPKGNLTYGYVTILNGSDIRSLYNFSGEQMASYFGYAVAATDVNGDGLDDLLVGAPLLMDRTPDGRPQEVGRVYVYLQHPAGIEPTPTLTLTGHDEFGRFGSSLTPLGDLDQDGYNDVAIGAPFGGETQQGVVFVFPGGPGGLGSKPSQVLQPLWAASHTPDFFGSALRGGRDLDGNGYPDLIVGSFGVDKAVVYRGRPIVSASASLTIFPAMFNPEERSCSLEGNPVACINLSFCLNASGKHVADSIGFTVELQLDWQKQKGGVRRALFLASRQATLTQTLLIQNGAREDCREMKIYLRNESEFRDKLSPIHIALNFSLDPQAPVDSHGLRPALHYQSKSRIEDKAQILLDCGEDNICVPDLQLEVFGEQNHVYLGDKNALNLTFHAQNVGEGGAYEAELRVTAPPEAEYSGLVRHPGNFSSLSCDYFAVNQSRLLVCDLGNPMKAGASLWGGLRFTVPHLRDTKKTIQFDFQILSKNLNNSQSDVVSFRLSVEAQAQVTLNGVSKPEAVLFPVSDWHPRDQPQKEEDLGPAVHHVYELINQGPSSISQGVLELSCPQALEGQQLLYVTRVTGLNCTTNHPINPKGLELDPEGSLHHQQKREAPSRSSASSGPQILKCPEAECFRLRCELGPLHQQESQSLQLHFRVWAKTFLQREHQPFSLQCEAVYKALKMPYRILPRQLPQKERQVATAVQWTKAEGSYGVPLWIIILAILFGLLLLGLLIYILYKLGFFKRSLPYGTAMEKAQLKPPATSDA
T1 sequence (P05556 21-798, chain 2 of 2): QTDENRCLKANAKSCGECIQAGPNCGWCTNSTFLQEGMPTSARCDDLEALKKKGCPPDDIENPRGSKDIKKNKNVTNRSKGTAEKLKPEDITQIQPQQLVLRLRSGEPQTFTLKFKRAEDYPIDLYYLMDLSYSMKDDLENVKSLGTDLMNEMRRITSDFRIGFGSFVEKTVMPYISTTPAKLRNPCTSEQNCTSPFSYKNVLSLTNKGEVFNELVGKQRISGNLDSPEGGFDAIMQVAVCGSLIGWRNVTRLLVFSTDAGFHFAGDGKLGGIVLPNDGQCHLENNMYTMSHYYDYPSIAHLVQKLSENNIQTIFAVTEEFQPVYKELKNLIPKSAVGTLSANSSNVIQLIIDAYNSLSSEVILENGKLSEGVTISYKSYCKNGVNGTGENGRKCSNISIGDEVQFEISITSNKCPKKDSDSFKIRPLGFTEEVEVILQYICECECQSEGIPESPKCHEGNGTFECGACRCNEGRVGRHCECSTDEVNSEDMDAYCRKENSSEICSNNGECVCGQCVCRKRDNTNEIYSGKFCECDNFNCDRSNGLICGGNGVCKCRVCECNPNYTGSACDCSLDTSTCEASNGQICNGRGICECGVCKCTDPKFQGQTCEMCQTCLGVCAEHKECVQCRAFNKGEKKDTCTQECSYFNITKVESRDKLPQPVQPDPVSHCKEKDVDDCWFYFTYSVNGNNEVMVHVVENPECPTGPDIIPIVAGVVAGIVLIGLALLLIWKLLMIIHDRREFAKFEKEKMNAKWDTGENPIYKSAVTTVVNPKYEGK
T8 sequence (P08637 17-208 F176V limits assumed): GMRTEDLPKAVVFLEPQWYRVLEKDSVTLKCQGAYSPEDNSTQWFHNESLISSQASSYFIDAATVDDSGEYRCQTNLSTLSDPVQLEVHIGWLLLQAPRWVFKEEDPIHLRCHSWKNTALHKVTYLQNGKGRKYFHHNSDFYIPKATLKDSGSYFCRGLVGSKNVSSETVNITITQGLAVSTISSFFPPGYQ
T5 sequence (P12314 16-288 limits assumed): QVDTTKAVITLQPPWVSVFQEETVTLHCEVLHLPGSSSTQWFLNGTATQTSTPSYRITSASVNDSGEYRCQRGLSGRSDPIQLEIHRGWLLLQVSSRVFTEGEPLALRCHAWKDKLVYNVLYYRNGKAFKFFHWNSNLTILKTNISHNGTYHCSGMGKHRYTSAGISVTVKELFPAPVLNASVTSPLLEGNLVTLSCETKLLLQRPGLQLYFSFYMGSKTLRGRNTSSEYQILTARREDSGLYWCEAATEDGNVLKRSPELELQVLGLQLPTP
T3 sequence (P08637 17-208 limits assumed): as the sequence (P08637 17-208 F176V limits assumed) above, with V160F counted along it

B1: 22B5/DLE (antibody, human IgG1, kappa)
heavy: QLQLQESGPGLVKPSETLSLTCTVSGGSISSSSYWGWIRQPPGKGLEWIGSIYYSGRNYNNPSLKSRVTISVDTSKNQFSLKLSSVTAADTAVYYCARHYYGSGSSYYYYDLDVWGQGTTVTVSSASTKGPSVFPLAPSSKSTSGGTAALGCLVKDYFPEPVTVSWNSGALTSGVHTFPAVLQSSGLYSLSSVVTVPSSSLGTQTYICNVNHKPSNTKVDKKVEPKSCDKTHTCPPCPAPELLGGPDVFLFPPKPKDTLMISRTPEVTCVVVDVSHEDPEVKFNWYVDGVEVHNAKTKPREEQYNSTYRVVSVLTVLHQDWLNGKEYKCKVSNKALPLPEEKTISKAKGQPREPQVYTLPPSREEMTKNQVSLTCLVKGFYPSDIAVEWESNGQPENNYKTTPPVLDSDGSFFLYSKLTVDKSRWQQGNVFSCSVMHEALHNHYTQKSLSLSPGK
light: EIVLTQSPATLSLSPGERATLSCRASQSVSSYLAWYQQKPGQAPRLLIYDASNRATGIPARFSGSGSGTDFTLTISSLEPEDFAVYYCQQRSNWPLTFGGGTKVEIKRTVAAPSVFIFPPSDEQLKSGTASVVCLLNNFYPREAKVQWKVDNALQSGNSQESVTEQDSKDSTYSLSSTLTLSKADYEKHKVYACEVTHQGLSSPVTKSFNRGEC
notes: Human IgG1 with Fc mutations S247D, A338L, I340E; the VH already holds the germline back-mutations I30S and N33S; also called 22B5 IgG1 DLE; 22B5 G1 DLE
Kd [1]: 1.99 nM | Kd [2]: 4.1 nM | koff [2]: 0.0014 s⁻¹ | kon [2]: 340000 M⁻¹ s⁻¹ | IC50, inhibition of HUVEC adhesion to fibronectin (fluorescence 485/535 nM) [3]: 1.01 nM | Fold enhancement over wt IgG1 [4]: 122 fold | Fold enhancement over wt IgG1 [5]: 14 fold | Fold enhancement over wt IgG1 [6]: 6 fold | Fold enhancement over wt IgG1 [7]: 260 fold | Fold enhancement over wt IgG1 [8]: 1.6 fold | Fold enhancement over wt IgG1 [9]: 70 fold | Fold enhancement over wt IgG1 [10]: 2.3 fold | Fold enhancement over wt IgG1 [11]: 5 fold

— patent US20100330078A1 (Pfizer, published 2010)
